From article PMC11263391, “Molecular insights into degron recognition by CRL5^ASB7 ubiquitin ligase” (Nature Communications, 2024) come the findings set out here.

What is called Kd is the concentration at which binding is half-saturated. A lower Kd goes with tighter binding.

This experiment has as its target ASB7-Elongin B-Elongin C ternary complex (human), Q9H672. Put plainly: ITC; peptide (0.8–4 mM) titrated into the ASB7 complex (39–156 µM); 16 °C; 20 mM Tris-HCl pH 7.5, 150 mM NaCl; MicroCal PEAQ-ITC.

Chain of ASB7-Elongin B-Elongin C ternary complex (human), Q9H672 (Q9H672 11-318, chain 1 of 3): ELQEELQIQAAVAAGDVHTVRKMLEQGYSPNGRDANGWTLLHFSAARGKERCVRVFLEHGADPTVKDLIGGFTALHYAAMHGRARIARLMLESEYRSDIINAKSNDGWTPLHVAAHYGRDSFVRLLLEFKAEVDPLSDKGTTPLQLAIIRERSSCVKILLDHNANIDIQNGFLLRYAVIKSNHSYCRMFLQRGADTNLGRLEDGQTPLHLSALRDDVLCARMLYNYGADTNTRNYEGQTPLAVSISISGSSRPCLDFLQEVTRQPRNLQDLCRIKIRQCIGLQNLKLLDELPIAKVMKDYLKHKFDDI
Chain of ASB7-Elongin B-Elongin C ternary complex (human), Q9H672 (Q15370 1-104, chain 2 of 3, further chain): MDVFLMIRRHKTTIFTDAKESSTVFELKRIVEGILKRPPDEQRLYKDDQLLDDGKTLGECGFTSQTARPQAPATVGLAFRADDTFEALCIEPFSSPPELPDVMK
Chain of ASB7-Elongin B-Elongin C ternary complex (human), Q9H672 (Q15369 17-112, chain 3 of 3, further chain): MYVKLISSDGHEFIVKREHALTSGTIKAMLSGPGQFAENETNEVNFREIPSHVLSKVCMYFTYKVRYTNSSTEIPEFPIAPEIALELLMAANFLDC

The molecule ELEKAKQECQDLKGKLEKCCRH (modifications not checked) [CEP152-degron 23-residue peptide] returned a Kd of 3.8 µM.

In the case of ELESLMKEQDLLETKLR (modifications not checked) [LZTS1 17-residue degron], the fold decrease in binding affinity against the LZTS1-degron is 6 fold.
